Consider 1 protein from PMC8721586, “Enzymatic Switching Between Archaeal DNA Polymerases Facilitates Abasic Site Bypass” (Frontiers in Microbiology, 2021).

Substrate in this series: Nc1nc2c(ncn2[C@H]2C[C@H](O)[C@@H](COP(=O)(O)OP(=O)(O)OP(=O)(O)O)O2)c(=O)[nH]1
The series is described as follows: steady-state single-nucleotide incorporation, FAM-primer gel assay, Michaelis-Menten fit. It is filed as biochemical, Saccharolobus islandicus. Particulars: pH 8.0 Tris-HCl, 40 mM KCl, 10 mM MgCl2, 11 nM enzyme, 100 nM primer-template (undamaged S0; also AP-site substrates D1-D8, L1-L8), apparent Km.

B1: Dpo2 (SisDpo2) (Saccharolobus islandicus REY15A) (protein)
chain: MREMEEYVLDAYPVKGGVKLFLSNFKEKSIRTTFPVYAITDNPDVVLQHPEVKYYEEEKWKTLNGKEAKVYRFEVESFDAYYYMRKRLNVVNETPTVLSQTLYRLGIKPFRRLNSSDDEFPKVTIAKVVPLDWYGESLKGKVFEVKINNEVRRFYEKPEVEADITECLGEACNYVKSNVKIRIEKKRSPVSAKGLIEWSLISLTPLHEIAYATIGKVLTTNEAWVAFKRRIIIPKIVPRVEKLRRLENIMMADKGGLILFPQPGCYDNVYQVDFSSMYPSLIVKYNISAETVDACDDIKTELHSICLREKGIIPEALEWLIKRKSELKRIDKERAEAIKWILVASFGYLGYRNSLFGKIEAYEMVTYLARKTLRRTMEIAEEMGLKVLHSIIDSLVVKGDNIDKFIERVEKETGLRLDHKRYNWIIFTTTRNDTPYPTRYIANMNGEIIAKGLIRENMPNIVKSFLKDVLRGLSLTRTCSDVKKVRIRDLYEKYRKRTINGEPIDYVIWIKGVPYVRGIKGFYDARLGYMGRDVNYYINYLRRVYDNVEEVISRC
notes: recombinant, expressed in native host S. islandicus E233S; purified as in Feng et al. 2021
Consider B1, for which the Km is recorded as 118 ± 22.7 µM and the kcat amounted to 31.5 ± 7.5 min⁻¹.

As a reminder, the Km is the concentration of substrate that gives half-maximal velocity. As usually defined, the kcat is the maximal rate divided by the concentration of active sites.
